Source: patent US20230235059A1 (published 2023)

Legend:
Test in all cases: SPR
[1] = target: Recombinant human PD-1-His (Sino Biological catalog #10377-H08H-B) (UniProt Q15116 25-167)
[2] = target: T1, Recombinant cynomolgus monkey PD-1-His (Sino Biological catalog #90311-C08H)
T1 chain: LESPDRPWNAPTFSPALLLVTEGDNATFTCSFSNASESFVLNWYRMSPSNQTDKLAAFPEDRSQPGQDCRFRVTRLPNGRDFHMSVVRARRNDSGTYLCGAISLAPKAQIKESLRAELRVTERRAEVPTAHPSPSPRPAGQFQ

[3] = target: T2, Recombinant rhesus monkey PD-1-His (Sino Biological catalog #90305-K08H)
T2 chain: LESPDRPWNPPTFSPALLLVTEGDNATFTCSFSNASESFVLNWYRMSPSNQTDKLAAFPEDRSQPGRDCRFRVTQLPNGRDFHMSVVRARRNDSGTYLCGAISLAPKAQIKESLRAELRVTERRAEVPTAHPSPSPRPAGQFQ

Kd [1]: 12.2 nM
Kd [2]: 35.2 nM
Kd [3]: 3.33 nM
B1: HPD-BB9 (antibody, V domains shown)
VH: QVQLVQSGAEVKKPGASVKVSCKASGFRLTTNGISWVRQAPGQGLEWMGWISAGGGPTNYAQKLQGRVTMTTDTSTSTAYMELRSLRSDDTAVYYCAKGLYGTKDAWGQGTLVTVSS
VL: QSVLTQPPSVSEVPGQRVTISCSGGGSNIGSNAVNWYQHFPGKAPKLLIYYNDLLPSGVSDRFSASKSGTSASLAISGLRSEDEADYYCAAWDDNLSAYVFATGTKVTVL
